Consider 28 sequences from the supplement of paper PMC9170038.

In this data set the test system is MS2 coat protein. Description: apparent KD of MS2 coat protein; designed switch direction (-1 OFF switch, 1 ON switch): -1; higher = weaker reporter binding. In a few lines:
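Designed RNA switches with common flanks were transcribed on Illumina chips by stalled E. coli RNA polymerase and titrated with SNAP-549-labelled MS2 coat protein, from 0.7 or 1.5 nM doubling to 3 µM, in Tris-HCl pH 7.5 buffer with KCl, MgCl2, BSA, DTT, tRNA and Tween-20. Steps lasted 0.8–1.5 h (lowest) to 10–20 min (highest). Titrations ran without input, with 200 uM small-molecule ligand, or with an oligonucleotide input. Normalised cluster fluorescence was curve-fitted, and apparent KD is the per-design median over clusters.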

Where [1] appears, read: Eterna round: R95, input ligand: FMN 200 uM.
Setting [2] is: Eterna round: R95, input ligand: microRNA oligo, concentration not stated.
Setting [3] is: Eterna round: R95, input ligand: none.
Setting [4] is: input ligand: microRNA oligo, concentration not stated.

Consider “AGGAAUGAAGGAUAUACAUGAGGAUCACCCAUGUAAAAAAAGUCGUUUAUUGUGUCAUGUAGAAGGUCAAGAAG [JR_Exclusion3_Sub002] (puzzle: Exclusion 3)”, for which the “apparent KD of MS2 coat protein” value reads like this: under setting [1], 0.0296 µM; under setting [2], 0.0296 µM; under setting [3], 0.033 µM.
For the sequence “AGGUAACAUGAGGAUCACCCAUGUCAGGAUAUCAUAAAGAUUAGAUUAGAGAAGAGGUUGAGAAGGGACUAUAU [Excluse me! 17- Jieux - Exclusion 1] (puzzle: Exclusion 1)”, under setting [2], the “apparent KD of MS2 coat protein” value came to 0.0419 µM.
As for “AGGUCUCGUGUCAGGAUAUAUUUUCUCUGAGCAAGGUAGAAGGGACAUGAGGAUCACCCAUGUCUGAGGAAAAU [Eternabot (L1) Solution 34] (Eterna round: R97, puzzle: Brourd's mod of Exclusion 4)”, the “apparent KD of MS2 coat protein” value worked out at 0.024 µM (input ligand: FMN 200 uM) and 0.0191 µM (input ligand: none).
As for “AGGUGGAAGCAGGAUAUGCUAGAAGUGUAGAAUGCAGAAGGGCUAACAUGAGGAUCACCCAUGUAAGAGGUGUA [JR_E6_Sub051] (puzzle: Exclusion 6)”, the “apparent KD of MS2 coat protein” value reads like this: under setting [1], 0.383 µM; under setting [2], 0.2 µM; under setting [3], 0.236 µM.
As for “AGGUGUAGAGGAUAUACUGCAAAGCACAUGAGGAUCACCCAUGUCCCUCUAUGGGAUUAUGUAGAAGGCUACACCA [Omei Ex5 C6] (Eterna round: R97, puzzle: Exclusion 5)”, the “apparent KD of MS2 coat protein” value reads like this: (input ligand: FMN 200 uM) 0.0175 µM; (input ligand: none) 0.0202 µM.
As for “AGGUGUAGAGGAUAUUUAUUCUUCCACAUGAGGAUCACCCAUGUCCUGGUCACCAAGGACGGAGAAGGCUACACCA [Omei Ex5 D24] (Eterna round: R97, puzzle: Exclusion 5)”, the “apparent KD of MS2 coat protein” value was determined as 0.0574 µM (input ligand: FMN 200 uM) and 0.0635 µM (input ligand: none).
Turning to “AGUAACAGAGGAUAUACUGUUUUAUGUAUUUAUUAUUUUAAACAUGAGGAUCACCCAUGUAGAAGGCUGAAUGA [JMF 98] (puzzle: Exclusion 2)”, the “apparent KD of MS2 coat protein” value under setting [2] is 0.0224 µM.
On to “AGUAACAGAGGAUAUACUGUUUUAUGUGUUUAUUAUUUUAAACAUGAGGAUCACCCAUGUAGAAGGCUGAAUAA [JMF 82] (puzzle: Exclusion 2)”, for which the “apparent KD of MS2 coat protein” value under setting [2] came out at 0.0403 µM.
Turning to “AGUAACUAUCACGAAAGUGAUAGUUACAACAGGUGAUAAACAUGAGGAUCACCCAUGUCCUCAUUUGCUCGUCUUAU [Sensor 3 - 11] (puzzle: Sensor v3, turn-off variant 2)”, the “apparent KD of MS2 coat protein” value is 0.984 µM under setting [1], 0.422 µM under setting [2] and 0.527 µM under setting [3].
With “AGUAACUAUCACGAAAGUGAUAGUUACAAUAGCAAGUGAACAUGAGGAUCACCCAUGUCCUCAUUUGCUCGUCUUAU [Sensor 3 - 20] (puzzle: Sensor v3, turn-off variant 2)”, the “apparent KD of MS2 coat protein” value under setting [1] turned out to be 0.0161 µM, the “apparent KD of MS2 coat protein” value under setting [2] is 0.632 µM and the “apparent KD of MS2 coat protein” value under setting [3] worked out at 0.0136 µM.
For “AGUACAAUCACGAAAGUGAUUGUACAAUAAGCUUGUGAAACAUGAGGAUCACCCAUGUCCUCAUAAGCUCGUCUUAU [Mat - Sensor v2 -ver2- JL mod - D69] (Eterna round: R96, puzzle: Sensor v2, turn-off variant 2)”, the “apparent KD of MS2 coat protein” value (input ligand: FMN 200 uM) is 0.0161 µM, the “apparent KD of MS2 coat protein” value under setting [4] is 0.416 µM and the “apparent KD of MS2 coat protein” value (input ligand: none) was 0.0184 µM.
Regarding “AGUACCUGAGUACAAAGUAACAUGAGGAUCACCCAUGUAAAUGGGUGAGAACAAGCUCACCGUUCGUCUUAAAUAAA [JL turnoff v1 79] (Eterna round: R96, puzzle: Sensor v2, turn-off variant)”, the “apparent KD of MS2 coat protein” value reads like this: (input ligand: FMN 200 uM) 0.584 µM; under setting [4], 0.0388 µM; (input ligand: none) 0.618 µM.
On to “AGUACGAUGCGUGCUGACAUGCGUCGUGCAGCAGGUGAUACAUGAGGAUCACCCAUGUCCUCAUUUGCUCGUCUUGU [Mat - Sensor v3 - Turn-off var 2 - D18] (puzzle: Sensor v3, turn-off variant 2)”, for which the “apparent KD of MS2 coat protein” value is, setting by setting: under setting [1], 0.0372 µM; under setting [2], 0.257 µM; under setting [3], 0.0361 µM.
On to “AGUACUAACACGAAAGUGUUAGUACAAUAAGCUUGUGAAACAUGAGGAUCACCCAUGUCCUCCUAAGCUCGUCUUAU [salish99_TOv2_r3_049] (puzzle: Sensor v3, turn-off variant 2)”, for which the “apparent KD of MS2 coat protein” value under setting [1] was determined as 0.0454 µM, the “apparent KD of MS2 coat protein” value under setting [2] amounted to 0.14 µM and the “apparent KD of MS2 coat protein” value under setting [3] came out at 0.0432 µM.
“AGUACUAACACGAGAGUGUUAGUACAAUAAGCUUGUGUUACAUGAGGAUCACCCAUGUCCUCAUAAGCUCGUCUUAU [Mat - Sensor v3 - Turn-off var 2 - D53] (puzzle: Sensor v3, turn-off variant 2)”: the “apparent KD of MS2 coat protein” value runs as follows: under setting [1], 0.133 µM; under setting [2], 0.246 µM; under setting [3], 0.115 µM.
As to “AGUACUAACACGAGAGUGUUAGUACUAUAAGCUUGUGUUACAUGAGGAUCACCCAUGUCCUCAUAGGCUCGUCUUAG [Mat - Sensor v3 - Turn-off var 2 - D83] (puzzle: Sensor v3, turn-off variant 2)”, the “apparent KD of MS2 coat protein” value reads like this: under setting [1], 0.0804 µM; under setting [2], 0.0427 µM; under setting [3], 0.0873 µM.
“AGUACUAACACGGAAGUGUUAGUACAAUAAGCUUGUGAAACAUGAGGAUCACCCAUGUCCUCAUAAGCUCGUCUUAU [salish99_TOv2_r3_026] (puzzle: Sensor v3, turn-off variant 2)”: the “apparent KD of MS2 coat protein” value under setting [1] is 0.0111 µM, the “apparent KD of MS2 coat protein” value under setting [2] was 0.315 µM and the “apparent KD of MS2 coat protein” value under setting [3] amounted to 0.0181 µM.
In the case of “AGUACUAACACGUGUGUGUUAGUACAAUAAGCUUGUGAAACAUGAGGAUCACCCAUGUCCUCAUAAGCUCGUCUUAU [salish99_TOv2_r3_074] (Eterna round: R96, puzzle: Sensor v3, turn-off variant 2)”, the “apparent KD of MS2 coat protein” value runs as follows: (input ligand: FMN 200 uM) 0.0149 µM; under setting [4], 0.514 µM; (input ligand: none) 0.0171 µM.
As for “AGUACUAACACGUGUGUGUUAGUACAAUAAGCUUGUGAAACAUGAGGAUCACCCAUGUCCUCAUAAGCUCGUCUUAU [salish99_TOv2_r3_074] (puzzle: Sensor v3, turn-off variant 2)”, the “apparent KD of MS2 coat protein” value reads like this: under setting [1], 0.0161 µM; under setting [2], 0.813 µM; under setting [3], 0.015 µM.
Turning to “AGUACUAACCCGAAAGUGUUAGUACAAUAAGCUUGUGAAACAUGAGGAUCACCCAUGUCCUCAUAAGCUCGUCUUAU [salish99_TOv2_r3_024] (puzzle: Sensor v3, turn-off variant 2)”, the “apparent KD of MS2 coat protein” value amounted to 0.0167 µM under setting [1], 0.766 µM under setting [2] and 0.0153 µM under setting [3].
The matching figures for “AGUACUAUGCGAGCUGACUUGCGUAGUGCAGCAGGUGAAACAUGAGGAUCACCCAUGUCCUCAUUUGCUCGUCUUAU [Mat - Sensor v3 - Turn-off var 2 - D2] (puzzle: Sensor v3, turn-off variant 2)”: 0.0343 µM, 0.502 µM and 0.0338 µM.
Turning to “AGUACUAUGCGAGCUGACUUGCGUAGUGCAGCAGGUGUUACAUGAGGAUCACCCAUGUCCUCAUUUGCUCGUCUUAU [Mat - Sensor v3 - Turn-off var 2 - D6] (puzzle: Sensor v3, turn-off variant 2)”, the “apparent KD of MS2 coat protein” value under setting [1] came to 0.271 µM, the “apparent KD of MS2 coat protein” value under setting [2] was determined as 0.193 µM and the “apparent KD of MS2 coat protein” value under setting [3] is 0.247 µM.
“AGUAGGUCUACCUUGGUGGAUCUGCAUAAAGCAAGUGAAACAUGAGGAUCACCCAUGUCCUCAUUUGCUCGUCUUAU [JL turnoff v2 99.20] (puzzle: Sensor v3, turn-off variant 2)”: the “apparent KD of MS2 coat protein” value worked out at 0.0148 µM under setting [1], 0.634 µM under setting [2] and 0.013 µM under setting [3].
Consider “AGUAGUAGUAUCCGAUCCUACAUGAGGAUCACCCAUGUAGCUAGACGUGCACGCGAUGCUCGUCAGACUACCGGAUG [salish99_TOv1_r3_041] (puzzle: Sensor v3, turn-off variant 1)”, for which the “apparent KD of MS2 coat protein” value is 0.0237 µM under setting [1], 0.023 µM under setting [2] and 0.0296 µM under setting [3].
The matching figures for “AGUAGUAGUAUCCGUUCUUACAUGAGGAUCACCCAUGUUUCUUGACGUGCACGCGAUGCUCGUCAGACUACCAGAUG [salish99_TOv1_r3_055] (puzzle: Sensor v3, turn-off variant 1)”: 0.0685 µM, 0.0884 µM and 0.0915 µM.
For “AGUAGUUGUUUCCGUUCUUACAUGAGGAUCACCCAUGUUUCUUGUCGUGCUCGCGUUGCUCGUCAGACUACCAGUUG [salish99_TOv1_r3_061] (puzzle: Sensor v3, turn-off variant 1)”, the “apparent KD of MS2 coat protein” value is, setting by setting: under setting [1], 0.0624 µM; under setting [2], 0.0737 µM; under setting [3], 0.0876 µM.
With “AGUAGUUGUUUCCGUUCUUACAUGAGGAUCACCCAUGUUUCUUGUCGUGCUCGCGUUGCUCGUCAGACUUCCUGUUG [salish99_TOv1_r3_063] (Eterna round: R96, puzzle: Sensor v3, turn-off variant 1)”, the “apparent KD of MS2 coat protein” value reads like this: (input ligand: FMN 200 uM) 0.0875 µM; under setting [4], 0.0495 µM; (input ligand: none) 0.0766 µM.
In the case of “AGUAGUUGUUUCCGUUCUUACAUGAGGAUCACCCAUGUUUCUUGUCGUGCUCGCGUUGCUCGUCAGACUUCCUGUUG [salish99_TOv1_r3_063] (puzzle: Sensor v3, turn-off variant 1)”, the “apparent KD of MS2 coat protein” value by setting is: under setting [1], 0.0872 µM; under setting [2], 0.102 µM; under setting [3], 0.123 µM.
